Measurements: PMC8726686

What was measured:
[1] = biological target: JS016-WT (wild-type control antibody); assay: BLI
[2] = biological target: Fc gamma receptor Type IIIa, FcγRIIIa (F176) (human) (UniProt P08637); assay: BLI
Sequence of UniProt P08637 (P08637 17-254): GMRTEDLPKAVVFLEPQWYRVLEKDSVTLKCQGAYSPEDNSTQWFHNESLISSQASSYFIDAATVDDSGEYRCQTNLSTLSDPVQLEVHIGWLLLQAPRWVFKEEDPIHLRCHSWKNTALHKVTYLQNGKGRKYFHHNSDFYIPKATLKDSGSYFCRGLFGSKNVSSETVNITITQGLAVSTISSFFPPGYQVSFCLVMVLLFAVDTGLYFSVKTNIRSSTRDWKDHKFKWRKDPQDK

Substance | Kd [1] [nM] | Kd [2] [nM]
C1q (first subcomponent of the C1 complex) | 2.12 | –
JS016-WT (wild-type control antibody) | – | 2000
